Measurements reported in paper PMC4072508, “Genome-Wide Prediction and Validation of Peptides That Bind Human Prosurvival Bcl-2 Proteins” (PLoS Computational Biology, 2014).

T1: Bfl-1, Q16548
T1 chain: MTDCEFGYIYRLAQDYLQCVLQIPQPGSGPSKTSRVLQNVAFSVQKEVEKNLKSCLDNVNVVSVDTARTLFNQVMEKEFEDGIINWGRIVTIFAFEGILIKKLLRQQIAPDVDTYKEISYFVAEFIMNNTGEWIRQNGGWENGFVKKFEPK

T2: Mcl-1, Q07820
T2 chain: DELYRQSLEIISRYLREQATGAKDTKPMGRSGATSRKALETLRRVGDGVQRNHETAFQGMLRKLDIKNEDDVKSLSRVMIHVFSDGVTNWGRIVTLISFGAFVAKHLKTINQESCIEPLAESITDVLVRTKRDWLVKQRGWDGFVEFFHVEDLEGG


What was measured:
Test in all cases: peptide SPOT array, c-Myc-tagged receptor at 1 uM or 100 nM, anti-c-Myc-Cy3
Bfl-1, Q16548 = target: T1, Bfl-1, Q16548
Mcl-1, Q07820 = target: T2, Mcl-1, Q07820
Bcl-xL, Q07817 = target: Bcl-xL, Q07817
Sequence of Bcl-xL, Q07817 (Q07817 1-209): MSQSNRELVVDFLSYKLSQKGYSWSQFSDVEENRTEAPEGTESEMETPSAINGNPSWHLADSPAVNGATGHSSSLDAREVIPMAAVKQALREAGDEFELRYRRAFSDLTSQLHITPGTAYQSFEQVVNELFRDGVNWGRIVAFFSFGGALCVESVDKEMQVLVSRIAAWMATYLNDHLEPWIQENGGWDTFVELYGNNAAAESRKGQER

Binder	SPOT signal as a fraction of Bim BH3's signal on the same receptor and array (Bfl-1, Q16548)	SPOT signal as a fraction of Bim BH3's signal on the same receptor and array (Mcl-1, Q07820)	SPOT signal as a fraction of Bim BH3's signal on the same receptor and array (Bcl-xL, Q07817)
LMARPAVALHDQSIADGFKEAVRYVL [SOS2]	0.22	0.45	0.17
APGEEDLCAAFNVICDNVGKDWRRLA [FADD]	0.04	0.16	0.08
FGEYSGISENIILVGDDFWIPETSFI [ROS1]	0.04	0.04	0.07
HHSSQEMSSEYREYLDSFGKCPGGRN [PCYT2]	0.03	0.04	0.05
AEVMRQRGINMRYLLKVLELVLRSPA [KIAA0664]	0.49	0.71	0.74
LALLAQPSHLDRQVARSVFGHICSHL [MYBBP1A]	0.38	0.63	0.68
GVMTQEVGQLLQDMLDDVYQQYRSLT [HUWE1]	0.01	0.02	0.03
RAKASSLSEELKHFADGLETDGTLQK [DSN1]	0.04	0.05	0.07
APEEDFFSIHIRIVLDWTEGLFNACG [CYBB]	0.04	0.04	0.06
SFLSAHCASHDAWFGDSLTSLSQRLQ [TMEM214]	0.06	0.05	0.07
QASREAGAAADRNVAQRLFENYQTQS [CCDC68]	0.04	0.04	0.05
SMRRNAMGVGLVFELDLFTTRHISHW [DNAH10]	0.17	0.18	0.21
WVKSIRICTPMGKLLDSCHPLTRKVP [PROK2]	0.53	0.56	1.23
NGGLLEFHKSLQEILDKNDHWFDIDP [DZIP3]	0.05	0.06	0.12
YFKLFRASGDMRTNLDNYLYEIQLSS [IGF2R]	0.37	0.39	0.28
QCPIFRLGDIFRETGDNFSDVAIQGG	0.04	0.05	0.07

Binder	SPOT signal as a fraction of Bim BH3's signal on the same receptor and array (Bfl-1, Q16548)	SPOT signal as a fraction of Bim BH3's signal on the same receptor and array (Mcl-1, Q07820)	SPOT signal as a fraction of Bim BH3's signal on the same receptor and array (Bcl-xL, Q07817)
LFWTPLLVVLDAGLGDTEAQQTTLHP [SGCA]	0.05	0.04	0.06
VDSIRPKCQEDRHLCDQFSAEIARRR [MCF2L]	0.1	0.08	0.25
QEQEQHVPFDIHTYGDQLVSRFPQLN [NCAPH2]	0.05	0.04	0.06
TGSLCEIATTDSFEGDGFLWVKSGSV [CRB1]	0.03	0.04	0.06
MRSQLGKATALAIMLDKLWWADQVSE [LRP1]	0.09	0.18	0.12
DSLLWKLAGLLRESLDVVLSGCSTLS [STK11IP]	0.04	0.05	0.06
ADVHGIWSRLFCDFGDEFEVLDTTGE [UBA6]	0.04	0.04	0.07
FKAWGKFGGAFCRYLDEMKEIQERQR [PURB]	1.19	1.07	1.19
KLALEQRCRELRARGRRLEETLPRRI [KIF19]	0.62	0.58	1.22
SGLPGLSSVDINNFGDSINESEGIPL [MKI67]	0.04	0.04	0.08
QAGPVSSGLALRKLGDRVQLLNLLVT [CCDC57]	0.39	0.57	1.06
RMIVDCVSSHLKKTLDGAKTFIIFLC [BBS10]	0.24	0.21	0.61
SSTMGQVGRQLAIILDDINRRYDSEF [BAK1]	0.01	0.01	0.02
CHGLRELALNDHLLSDELLLALSSEK [FBXL3]	0.04	0.04	0.06
KIETTPESRYLAQILDSVSLTCSTTG [VCAM1]	0.04	0.04	0.07
QCPIFRLGDIDRETGDNFSDVAIQGG	0.03	0.04	0.05
